Data published in paper PMC7835227 (Scientific Reports, 2021).

Key:
GYM329 = target: T1, GYM329 (human); assay: SPR; Biacore T200, 25 °C, pH 6.0, PB-P+; antibody captured by protein L immobilised on a CM5 chip; FcRn as analyte, two-fold dilutions 15-240 nmol/L (GYM329) or 250-4000 nmol/L (trastuzumab); steady state model; conditions: both partners purified
T1 construct: light chain of GYM329 (humanized, engineered MST1032); Made a molecule only as the ligand of Fc receptors (FcγRs, FcRn); Captured by protein L in the assays; also called anti-latent myostatin sweeping antibody; source: Chinese hamster ovary cells, stably expressed, purified (protein A)
T1 sequence (heavy, as listed by the source, chain 1 of 2): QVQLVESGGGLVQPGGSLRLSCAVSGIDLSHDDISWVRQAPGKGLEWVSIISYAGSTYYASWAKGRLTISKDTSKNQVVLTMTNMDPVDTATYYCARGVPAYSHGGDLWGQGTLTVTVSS
T1 sequence (light, as listed by the source, chain 2 of 2): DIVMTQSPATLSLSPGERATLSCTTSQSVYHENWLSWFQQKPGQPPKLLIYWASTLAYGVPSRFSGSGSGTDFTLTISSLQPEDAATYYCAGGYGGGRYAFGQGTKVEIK

[1] = target: T2, reference wild type human IgG1 (with trastuzumab Fab) (human); assay: as above; conditions: both partners purified
T2 construct: heavy variable domain of trastuzumab; wild type human IgG1 heavy constant region; light chain of trastuzumab; Ligand of FcRn here; The supplement says that recombinant antibodies other than GYM329 and GYM-cyFc were expressed transiently in FreeStyle293-F and purified with protein A

Binder	Kd (GYM329)	Kd [1]
cynomolgus monkey FcRn (receptor, limits not given; soluble ectodomain taken from the UniProt extracellular feature, with beta-2-microglobulin as obligate subunit by convention) chain 1: AESHLSLLYHLTAVSSPAPGTPAFWVSGWLGPQQYLSYDSLRGQAEPCGAWVWENQVSWYWEKETTDLRIKEKLFLEAFKALGGKGPYTLQGLLGCELSPDNTSVPTAKFALNGEEFMNFDLKQGTWGGDWPEALAISQRWQQQDKAANKELTFLLFSCPHRLREHLERGRGNLEWKEPPSMRLKARPGNPGFSVLTCSAFSFYPPELQLRFLRNGMAAGTGQGDFGPNSDGSFHASSSLTVKSGDEHHYCCIVQHAGLAQPLRVELETPAKSS chain 2: IQRTPKIQVYSRHPPENGKPNFLNCYVSGFHPSDIEVDLLKNGEKMGKVEHSDLSFSKDWSFYLLYYTEFTPNEKDEYACRVNHVTLSGPRTVKWDRDM	104 nM	
cynomolgus monkey FcRn (receptor) chain 1: AESHLSLLYHLTAVSSPAPGTPAFWVSGWLGPQQYLSYDSLRGQAEPCGAWVWENQVSWYWEKETTDLRIKEKLFLEAFKALGGKGPYTLQGLLGCELSPDNTSVPTAKFALNGEEFMNFDLKQGTWGGDWPEALAISQRWQQQDKAANKELTFLLFSCPHRLREHLERGRGNLEWKEPPSMRLKARPGNPGFSVLTCSAFSFYPPELQLRFLRNGMAAGTGQGDFGPNSDGSFHASSSLTVKSGDEHHYCCIVQHAGLAQPLRVELETPAKSS chain 2: IQRTPKIQVYSRHPPENGKPNFLNCYVSGFHPSDIEVDLLKNGEKMGKVEHSDLSFSKDWSFYLLYYTEFTPNEKDEYACRVNHVTLSGPRTVKWDRDM		1530 nM
